Laboratory results from PMC5696648.

Experiments:
[1] = system: LexA WT (Escherichia coli); test: EMSA
[2] = system: LexA S119A (Escherichia coli); test: EMSA

**Q.** Which results are given for 44-bp SOS consensus operator duplex?
**A.** Kd [1]: 47 nM; Kd [2]: 43 nM
